Earlier results on one sequence are cited in article PMC4431351.

pKd: −log10 of the molar value.

The target of the data set is MUC1 tandem-repeat synthetic peptide (UniProt P15941). The conditions noted are these: Probe assembled in 5 mM sodium phosphate pH 7.4, then PBS (10 mM sodium phosphate, 140 mM NaCl, 2.70 mM KCl, pH 7.6), room temperature; cell incubation details ….
Chain of UniProt P15941 (P15941 whole entry): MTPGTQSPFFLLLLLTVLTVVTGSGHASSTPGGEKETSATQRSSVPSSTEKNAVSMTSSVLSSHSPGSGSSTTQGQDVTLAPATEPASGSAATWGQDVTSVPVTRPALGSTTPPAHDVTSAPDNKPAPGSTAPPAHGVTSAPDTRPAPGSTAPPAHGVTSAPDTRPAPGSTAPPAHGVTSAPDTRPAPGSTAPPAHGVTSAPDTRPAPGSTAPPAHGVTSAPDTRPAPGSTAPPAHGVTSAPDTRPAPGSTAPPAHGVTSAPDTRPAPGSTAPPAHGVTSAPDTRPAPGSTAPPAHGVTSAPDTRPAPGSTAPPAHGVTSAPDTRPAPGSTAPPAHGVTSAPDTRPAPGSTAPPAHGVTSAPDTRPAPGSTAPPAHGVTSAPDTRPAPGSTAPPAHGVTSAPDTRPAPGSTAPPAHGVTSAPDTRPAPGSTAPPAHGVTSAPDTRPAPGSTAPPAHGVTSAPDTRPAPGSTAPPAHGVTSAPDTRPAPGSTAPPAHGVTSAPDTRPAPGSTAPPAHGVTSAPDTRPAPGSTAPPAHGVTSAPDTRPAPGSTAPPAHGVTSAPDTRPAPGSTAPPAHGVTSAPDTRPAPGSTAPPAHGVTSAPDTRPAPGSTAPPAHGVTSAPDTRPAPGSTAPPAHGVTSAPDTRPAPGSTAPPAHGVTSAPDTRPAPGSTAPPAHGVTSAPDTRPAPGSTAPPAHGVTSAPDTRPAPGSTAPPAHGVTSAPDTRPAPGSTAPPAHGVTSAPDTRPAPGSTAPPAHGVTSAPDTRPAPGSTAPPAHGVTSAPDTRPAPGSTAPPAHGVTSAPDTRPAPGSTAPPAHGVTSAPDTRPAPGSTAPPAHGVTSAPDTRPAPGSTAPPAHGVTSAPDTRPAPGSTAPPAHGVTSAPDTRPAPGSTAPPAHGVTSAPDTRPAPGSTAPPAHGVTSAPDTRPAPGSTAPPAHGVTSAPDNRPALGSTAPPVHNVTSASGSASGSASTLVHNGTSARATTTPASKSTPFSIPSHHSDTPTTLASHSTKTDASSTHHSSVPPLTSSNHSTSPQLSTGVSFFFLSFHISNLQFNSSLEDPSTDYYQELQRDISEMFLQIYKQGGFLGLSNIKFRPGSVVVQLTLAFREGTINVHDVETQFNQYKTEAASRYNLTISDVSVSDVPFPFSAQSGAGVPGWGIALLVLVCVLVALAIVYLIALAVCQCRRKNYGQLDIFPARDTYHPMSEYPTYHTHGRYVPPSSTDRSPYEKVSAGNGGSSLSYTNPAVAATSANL

Regarding “GCAGTTGATCCTTTGGATACCCTGG [AptMUC1 (25-mer)]”, the pKd was 10.00.
